Laboratory results as given in patent publication US20230357348A1 (AstraZeneca / MedImmune, published 2023).
Starred links: 1 amine or outer side, 2 acyl side, 3 side chain; linkers in the order of their positions; H or OH if unused. Non-standard residues stand in square brackets, D forms with d. Groups on a side chain read outwards from the residue. No end group written: not given here. *: point of attachment. C18 diacid = O=C(O)CCCCCCCCCCCCCCCCC(=O)*; PEG8 = NCCOCCOCCOCCOCCOCCOCCOCCOCCC(=O)O; Dip = N[C@H](C(=O)O)C(c1ccccc1)c1ccccc1; γGlu = O=C(O)[C@H](CCC(=O)[*:2])N[*:1]; Stearoyl = CCCCCCCCCCCCCCCCCC(=O)*; αMeF = C[C@](N)(Cc1ccccc1)C(=O)O; (PEG)2 = polyethylene glycol 2; PEG4 = NCCOCCOCCOCCOCCC(=O)O; Aib = CC(C)(N)C(=O)O

Legend:
[1] = target: human GLP-1 receptor (hGLP-1R) (human, UniProt P43220 24-463); assay: cell-based or functional assay
[2] = target: human glucagon receptor (hGCGR) (human, UniProt P47871 26-477); assay: cell-based or functional assay
human glucagon receptor (hGCGR), sequence (P47871 26-477): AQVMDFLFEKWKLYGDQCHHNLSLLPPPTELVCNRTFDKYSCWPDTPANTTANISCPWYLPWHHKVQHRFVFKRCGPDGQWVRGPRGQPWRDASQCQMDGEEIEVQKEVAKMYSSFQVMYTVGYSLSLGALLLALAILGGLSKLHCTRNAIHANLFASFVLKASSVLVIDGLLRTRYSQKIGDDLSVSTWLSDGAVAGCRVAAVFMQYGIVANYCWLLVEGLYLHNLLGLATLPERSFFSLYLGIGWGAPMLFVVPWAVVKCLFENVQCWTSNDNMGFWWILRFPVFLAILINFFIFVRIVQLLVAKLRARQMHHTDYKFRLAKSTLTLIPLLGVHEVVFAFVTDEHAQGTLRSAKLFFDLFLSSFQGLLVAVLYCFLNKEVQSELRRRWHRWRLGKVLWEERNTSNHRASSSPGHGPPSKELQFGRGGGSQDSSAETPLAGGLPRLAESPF

B1: Peptide 56 (peptide)
peptide: HSQGS[αMeF]TSDVSK[Dip]LDSK([PEG4-γGlu-γGlu-Stearoyl])AAQD[αMeF]VE[Aib]IINT-NH2
modifications: N-terminus assumed
SMILES: CCCCCCCCCCCCCCCCCC(=O)N[C@@H](CCC(=O)N[C@@H](CCC(=O)NCCOCCOCCOCCOCCC(=O)NCCCC[C@H](NC(=O)[C@H](CO)NC(=O)[C@H](CC(=O)O)NC(=O)[C@H](CC(C)C)NC(=O)[C@@H](NC(=O)[C@H](CCCCN)NC(=O)[C@H](CO)NC(=O)[C@@H](NC(=O)[C@H](CC(=O)O)NC(=O)[C@H](CO)NC(=O)[C@@H](NC(=O)[C@](C)(Cc1ccccc1)NC(=O)[C@H](CO)NC(=O)CNC(=O)[C@H](CCC(N)=O)NC(=O)[C@H](CO)NC(=O)[C@@H](N)Cc1c[nH]cn1)[C@@H](C)O)C(C)C)C(c1ccccc1)c1ccccc1)C(=O)N[C@@H](C)C(=O)N[C@@H](C)C(=O)N[C@@H](CCC(N)=O)C(=O)N[C@@H](CC(=O)O)C(=O)N[C@@](C)(Cc1ccccc1)C(=O)N[C@H](C(=O)N[C@@H](CCC(=O)O)C(=O)NC(C)(C)C(=O)N[C@H](C(=O)N[C@H](C(=O)N[C@@H](CC(N)=O)C(=O)N[C@H](C(N)=O)[C@@H](C)O)[C@@H](C)CC)[C@@H](C)CC)C(C)C)C(=O)O)C(=O)O
Q: With B1 as the binder, how does the “hGLP-1R EC50 (pM)” value [1] read?
A: 4.86 pM

Q: And the “hGluc-R EC50 (pM)” value [2]?
A: 10.9 pM

Q: How did the “hGLP-1R EC50 (pM)” value [1] turn out when HSQGS[αMeF]TSDVSK[Dip]LDSK([(PEG)2-(PEG)2-γGlu-γGlu-Stearoyl])AAQD[αMeF]VQ[Dip]LEA-NH2 [Peptide 55] was run?
A: 18.8 pM

Q: What about the “hGluc-R EC50 (pM)” value [2] of the same binder?
A: 19.1 pM

B2: Peptide 57 (peptide)
peptide: HSQGS[αMeF]TSDVSK[Dip]LDSK([PEG8-γGlu-γGlu-Stearoyl])AAQD[αMeF]VE[Aib]IINT-NH2
modifications: N-terminus assumed
SMILES: CCCCCCCCCCCCCCCCCC(=O)N[C@@H](CCC(=O)N[C@@H](CCC(=O)NCCOCCOCCOCCOCCOCCOCCOCCOCCC(=O)NCCCC[C@H](NC(=O)[C@H](CO)NC(=O)[C@H](CC(=O)O)NC(=O)[C@H](CC(C)C)NC(=O)[C@@H](NC(=O)[C@H](CCCCN)NC(=O)[C@H](CO)NC(=O)[C@@H](NC(=O)[C@H](CC(=O)O)NC(=O)[C@H](CO)NC(=O)[C@@H](NC(=O)[C@](C)(Cc1ccccc1)NC(=O)[C@H](CO)NC(=O)CNC(=O)[C@H](CCC(N)=O)NC(=O)[C@H](CO)NC(=O)[C@@H](N)Cc1c[nH]cn1)[C@@H](C)O)C(C)C)C(c1ccccc1)c1ccccc1)C(=O)N[C@@H](C)C(=O)N[C@@H](C)C(=O)N[C@@H](CCC(N)=O)C(=O)N[C@@H](CC(=O)O)C(=O)N[C@@](C)(Cc1ccccc1)C(=O)N[C@H](C(=O)N[C@@H](CCC(=O)O)C(=O)NC(C)(C)C(=O)N[C@H](C(=O)N[C@H](C(=O)N[C@@H](CC(N)=O)C(=O)N[C@H](C(N)=O)[C@@H](C)O)[C@@H](C)CC)[C@@H](C)CC)C(C)C)C(=O)O)C(=O)O
Q: For B2, which “hGLP-1R EC50 (pM)” value [1] is on record?
A: 9.09 pM

Q: What about the “hGluc-R EC50 (pM)” value [2] of the same binder?
A: 16.9 pM

B3: Peptide 7 (peptide)
peptide: H[Aib]HGS[αMeF]TSDVSK[αMeF]LDSK([γGlu-C18 diacid])AAQD[αMeF]VEWIANT-NH2
modifications: N-terminus assumed
SMILES: CC[C@H](C)[C@H](NC(=O)[C@H](Cc1c[nH]c2ccccc12)NC(=O)[C@H](CCC(=O)O)NC(=O)[C@@H](NC(=O)[C@](C)(Cc1ccccc1)NC(=O)[C@H](CC(=O)O)NC(=O)[C@H](CCC(N)=O)NC(=O)[C@H](C)NC(=O)[C@H](C)NC(=O)[C@H](CCCCNC(=O)CC[C@H](NC(=O)CCCCCCCCCCCCCCCCC(=O)O)C(=O)O)NC(=O)[C@H](CO)NC(=O)[C@H](CC(=O)O)NC(=O)[C@H](CC(C)C)NC(=O)[C@](C)(Cc1ccccc1)NC(=O)[C@H](CCCCN)NC(=O)[C@H](CO)NC(=O)[C@@H](NC(=O)[C@H](CC(=O)O)NC(=O)[C@H](CO)NC(=O)[C@@H](NC(=O)[C@](C)(Cc1ccccc1)NC(=O)[C@H](CO)NC(=O)CNC(=O)[C@H](Cc1c[nH]cn1)NC(=O)C(C)(C)NC(=O)[C@@H](N)Cc1c[nH]cn1)[C@@H](C)O)C(C)C)C(C)C)C(=O)N[C@@H](C)C(=O)N[C@@H](CC(N)=O)C(=O)N[C@H](C(N)=O)[C@@H](C)O
Q: B3 was tested. Which “hGLP-1R EC50 (pM)” value [1] did it give?
A: 84.6 pM

Q: And the “hGluc-R EC50 (pM)” value [2]?
A: 30.7 pM
